Publication PMC5414417

Legend:
[1] = biological target: TMEM24 SMP domain (residues 76 to 260) (human) (UniProt O14523); assay: SEC
[2] = biological target: 3xFLAG-TMEM24(76-260) (human) (UniProt O14523); assay: native MS

Row | stoichiometry N [1] | stoichiometry N [2] | Substance
1 | 2 |  | TMEM24 SMP domain (residues 76 to 260) (from UniProt O14523 76-260) (domain or fragment)
2 |  | 2 | 3xFLAG-TMEM24(76-260) (from UniProt O14523 76-260) (domain or fragment)
